Laboratory results taken from paper doi:10.1101/2022.08.15.503920.
“And” between values parts separate entries of the source, which are not always exact repeats. Identical values can stand only once. Like-named read-outs stand apart in the source and are kept apart here.

What was measured:
Test in all cases: SEC-SAXS
[1] = target: enolase from baker's yeast (baker's yeast) (UniProt P00924)
[2] = target: enolase from baker's yeast (baker's yeast) (UniProt P00924); remark: listed apart in the source
P00924 = conditions: other: SEC-SAXS
[3] = target: L-lactate dehydrogenase from hog muscle (Sus scrofa) (UniProt P00339)
[4] = target: L-lactate dehydrogenase from hog muscle (Sus scrofa) (UniProt P00339); remark: listed apart in the source

Chain of enolase from baker's yeast (P00924 whole entry): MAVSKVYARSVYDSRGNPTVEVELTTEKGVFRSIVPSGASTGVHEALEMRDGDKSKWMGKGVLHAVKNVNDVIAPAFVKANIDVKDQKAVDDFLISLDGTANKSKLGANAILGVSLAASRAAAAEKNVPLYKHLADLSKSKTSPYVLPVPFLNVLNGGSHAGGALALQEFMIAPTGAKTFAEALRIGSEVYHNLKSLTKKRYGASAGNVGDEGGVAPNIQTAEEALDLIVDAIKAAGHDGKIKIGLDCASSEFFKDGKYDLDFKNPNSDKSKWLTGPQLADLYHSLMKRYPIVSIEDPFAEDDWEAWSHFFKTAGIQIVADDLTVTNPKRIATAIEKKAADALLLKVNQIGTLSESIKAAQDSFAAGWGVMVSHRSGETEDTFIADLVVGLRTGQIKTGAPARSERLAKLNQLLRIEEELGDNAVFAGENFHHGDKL

## enolase from baker's yeast (from UniProt P00924 1-437) (enzyme)
[1]
  stoichiometry N: 2
[2]
  stoichiometry N: 2

## enolase from baker's yeast
P00924
  share of monomer and dimer in the main peak body at 100 MPa: ∼50% monomer/dimer mixture

## L-lactate dehydrogenase from hog muscle (from UniProt P00339 1-332) (enzyme)
[3]
  stoichiometry N: 4 and 2
[4]
  stoichiometry N: 4
